According to US20140087995A1 (published 2014):
Numbered stars: 1 amine (or outer) side, 2 acyl side, 3 side chain; on linkers, the order of the positions; unused ones are H or OH. Bridge positions count the residues as written; N and C are the ends. Side chains are listed from the residue outwards. Ends that are not written are not given here. * marks the point of attachment. C20 diacid = O=C(O)CCCCCCCCCCCCCCCCCCC(=O)*; γGlu = O=C(O)[C@H](CCC(=O)[*:2])N[*:1]

T1: human amylin receptor (amylin 3(a) receptor: human calcitonin receptor with RAMP-3) (human, UniProt P30988 25-474; O60896 24-148)
T1 construct: whole, on cells; Assay used cell membranes of the Amylin 3(a)/CRE-luc BHK cells, not intact cells; also called hAmylin-R; hAmylinR
T1 sequence (looked up) 1: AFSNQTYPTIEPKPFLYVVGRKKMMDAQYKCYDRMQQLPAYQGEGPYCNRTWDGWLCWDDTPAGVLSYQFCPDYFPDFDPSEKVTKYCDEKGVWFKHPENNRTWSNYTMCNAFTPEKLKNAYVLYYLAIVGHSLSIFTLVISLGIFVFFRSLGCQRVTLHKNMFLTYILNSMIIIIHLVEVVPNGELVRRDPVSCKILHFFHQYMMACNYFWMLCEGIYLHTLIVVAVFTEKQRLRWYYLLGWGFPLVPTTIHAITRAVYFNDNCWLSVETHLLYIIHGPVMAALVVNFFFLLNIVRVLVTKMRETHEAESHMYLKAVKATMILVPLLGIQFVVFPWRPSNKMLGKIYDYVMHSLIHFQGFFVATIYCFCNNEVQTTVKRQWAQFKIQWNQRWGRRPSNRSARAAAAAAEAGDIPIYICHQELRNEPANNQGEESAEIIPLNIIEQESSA
T1 sequence (looked up) 2: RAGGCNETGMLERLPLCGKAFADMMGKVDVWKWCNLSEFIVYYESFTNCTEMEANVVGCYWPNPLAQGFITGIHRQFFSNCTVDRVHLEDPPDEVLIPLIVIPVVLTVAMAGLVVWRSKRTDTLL

T2: human calcitonin receptor (human, UniProt P30988 25-474)
T2 construct: whole, on cells; Assay used cell membranes, not intact cells; also called hCTR; hCT
T2 sequence (looked up): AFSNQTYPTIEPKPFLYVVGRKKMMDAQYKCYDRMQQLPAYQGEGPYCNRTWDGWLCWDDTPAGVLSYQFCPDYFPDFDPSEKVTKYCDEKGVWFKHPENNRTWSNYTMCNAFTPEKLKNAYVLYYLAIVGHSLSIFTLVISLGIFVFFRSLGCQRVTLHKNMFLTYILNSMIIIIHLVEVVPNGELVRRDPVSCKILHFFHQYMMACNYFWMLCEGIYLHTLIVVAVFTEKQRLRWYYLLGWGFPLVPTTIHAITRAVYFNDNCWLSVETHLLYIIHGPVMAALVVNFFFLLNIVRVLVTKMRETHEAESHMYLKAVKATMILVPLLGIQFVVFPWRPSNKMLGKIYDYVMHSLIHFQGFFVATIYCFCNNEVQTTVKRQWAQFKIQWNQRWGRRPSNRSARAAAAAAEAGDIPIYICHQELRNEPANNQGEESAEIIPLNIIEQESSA


How the values were obtained:
[1] = biological target: T1, human amylin receptor (amylin 3(a) …); test: SPA competition with 125I-rat amylin on membranes of BHK cells with human calcitonin receptor and RAMP-3 (Assay V)
In short: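 One-site competition analysis of SPA counts yielded IC₅₀ as a measure of affinity. Membranes were at 35 ng/μL final; incubation was 120 min at 25° C, pH 7.4.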

[2] = biological target: T2, human calcitonin receptor; test: ratio IC50 hCTR / IC50 hAmylin-R (reference: human amylin receptor), SPA competition assays
In short: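 Competition binding by SPA uses membrane preparations (35 ng/μL final) in pH 7.4 Hepes buffer with 1 mM CaCl2 and 5 mM MgCl₂. Incubation lasts 120 min at 25° C, and IC₅₀ comes from one-site fitting.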

[3] = biological target: T2, human calcitonin receptor; test: SPA competition with 125I-calcitonin on membranes of BHK cells with human calcitonin receptor (Assay VII)
In short: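 BHK hCTR membranes 35 ng/μL + SPA beads 0.05 mg/well; buffer 50 mM Hepes pH 7.4, 1 mM CaCl2, 5 mM MgCl₂, 0.1% OA, 0.02% Tween20. 120 min, 25° C., shaking. Scintillation count; IC50 by one-site binding competition.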

IC50 [1] [nM]	Ratio hCT/hAmylin binding [2]	IC50 [3] [nM]	Binder
1.16	28	32.5	K([γGlu-γGlu-C20 diacid])CNTATCATQRLAEFLRHSSPNFGAIPSSTNVGSRTY-NH2 (disulfide 2-7; N-terminus assumed; SMILES CC[C@H](C)[C@H](NC(=O)[C@H](C)NC(=O)CNC(=O)[C@H](Cc1ccccc1)NC(=O)[C@H](CC(N)=O)NC(=O)[C@@H]1CCCN1C(=O)[C@H](CO)NC(=O)[C@H](CO)NC(=O)[C@H](Cc1c[nH]cn1)NC(=O)[C@H](CCCNC(=N)N)NC(=O)[C@H](CC(C)C)NC(=O)[C@H](Cc1ccccc1)NC(=O)[C@H](CCC(=O)O)NC(=O)[C@H](C)NC(=O)[C@H](CC(C)C)NC(=O)[C@H](CCCNC(=N)N)NC(=O)[C@H](CCC(N)=O)NC(=O)[C@@H](NC(=O)[C@H](C)NC(=O)[C@@H]1CSSC[C@H](NC(=O)[C@@H](N)CCCCNC(=O)CC[C@H](NC(=O)CC[C@H](NC(=O)CCCCCCCCCCCCCCCCCCC(=O)O)C(=O)O)C(=O)O)C(=O)N[C@@H](CC(N)=O)C(=O)N[C@@H]([C@@H](C)O)C(=O)N[C@@H](C)C(=O)N[C@@H]([C@@H](C)O)C(=O)N1)[C@@H](C)O)C(=O)N1CCC[C@H]1C(=O)N[C@@H](CO)C(=O)N[C@@H](CO)C(=O)N[C@H](C(=O)N[C@@H](CC(N)=O)C(=O)N[C@H](C(=O)NCC(=O)N[C@@H](CO)C(=O)N[C@@H](CCCNC(=N)N)C(=O)N[C@H](C(=O)N[C@@H](Cc1ccc(O)cc1)C(N)=O)[C@@H](C)O)C(C)C)[C@@H](C)O, also called compound 89)
0.069	22.6	1.56	K([γGlu-γGlu-C20 diacid])CNTATCATQRLAEFLRHSSPNFGAILSSTPVGPETY-NH2 (disulfide 2-7 (inferred))
0.326	53.6	17.5	K([γGlu-γGlu-C20 diacid])CNTATCATQRLAEFLRHSSPNFGAIPSSTNVGPRTY-NH2 (disulfide 2-7; N-terminus assumed; SMILES CC[C@H](C)[C@H](NC(=O)[C@H](C)NC(=O)CNC(=O)[C@H](Cc1ccccc1)NC(=O)[C@H](CC(N)=O)NC(=O)[C@@H]1CCCN1C(=O)[C@H](CO)NC(=O)[C@H](CO)NC(=O)[C@H](Cc1c[nH]cn1)NC(=O)[C@H](CCCNC(=N)N)NC(=O)[C@H](CC(C)C)NC(=O)[C@H](Cc1ccccc1)NC(=O)[C@H](CCC(=O)O)NC(=O)[C@H](C)NC(=O)[C@H](CC(C)C)NC(=O)[C@H](CCCNC(=N)N)NC(=O)[C@H](CCC(N)=O)NC(=O)[C@@H](NC(=O)[C@H](C)NC(=O)[C@@H]1CSSC[C@H](NC(=O)[C@@H](N)CCCCNC(=O)CC[C@H](NC(=O)CC[C@H](NC(=O)CCCCCCCCCCCCCCCCCCC(=O)O)C(=O)O)C(=O)O)C(=O)N[C@@H](CC(N)=O)C(=O)N[C@@H]([C@@H](C)O)C(=O)N[C@@H](C)C(=O)N[C@@H]([C@@H](C)O)C(=O)N1)[C@@H](C)O)C(=O)N1CCC[C@H]1C(=O)N[C@@H](CO)C(=O)N[C@@H](CO)C(=O)N[C@H](C(=O)N[C@@H](CC(N)=O)C(=O)N[C@H](C(=O)NCC(=O)N1CCC[C@H]1C(=O)N[C@@H](CCCNC(=N)N)C(=O)N[C@H](C(=O)N[C@@H](Cc1ccc(O)cc1)C(N)=O)[C@@H](C)O)C(C)C)[C@@H](C)O, also called compound 110)
0.179	145	26	K([γGlu-γGlu-C20 diacid])CNTATCATQRLAHFLRHSSPNFGAIPSSTNVGSNTY-NH2 (disulfide 2-7; N-terminus assumed; SMILES CC[C@H](C)[C@H](NC(=O)[C@H](C)NC(=O)CNC(=O)[C@H](Cc1ccccc1)NC(=O)[C@H](CC(N)=O)NC(=O)[C@@H]1CCCN1C(=O)[C@H](CO)NC(=O)[C@H](CO)NC(=O)[C@H](Cc1c[nH]cn1)NC(=O)[C@H](CCCNC(=N)N)NC(=O)[C@H](CC(C)C)NC(=O)[C@H](Cc1ccccc1)NC(=O)[C@H](Cc1c[nH]cn1)NC(=O)[C@H](C)NC(=O)[C@H](CC(C)C)NC(=O)[C@H](CCCNC(=N)N)NC(=O)[C@H](CCC(N)=O)NC(=O)[C@@H](NC(=O)[C@H](C)NC(=O)[C@@H]1CSSC[C@H](NC(=O)[C@@H](N)CCCCNC(=O)CC[C@H](NC(=O)CC[C@H](NC(=O)CCCCCCCCCCCCCCCCCCC(=O)O)C(=O)O)C(=O)O)C(=O)N[C@@H](CC(N)=O)C(=O)N[C@@H]([C@@H](C)O)C(=O)N[C@@H](C)C(=O)N[C@@H]([C@@H](C)O)C(=O)N1)[C@@H](C)O)C(=O)N1CCC[C@H]1C(=O)N[C@@H](CO)C(=O)N[C@@H](CO)C(=O)N[C@H](C(=O)N[C@@H](CC(N)=O)C(=O)N[C@H](C(=O)NCC(=O)N[C@@H](CO)C(=O)N[C@@H](CC(N)=O)C(=O)N[C@H](C(=O)N[C@@H](Cc1ccc(O)cc1)C(N)=O)[C@@H](C)O)C(C)C)[C@@H](C)O, also called compound 92)
0.525	29.1	15.2	K([γGlu-γGlu-C20 diacid])CNTATCATQRLAEFLRHSSPNFGAIPSSTNVGHETY-NH2 (disulfide 2-7; N-terminus assumed; SMILES CC[C@H](C)[C@H](NC(=O)[C@H](C)NC(=O)CNC(=O)[C@H](Cc1ccccc1)NC(=O)[C@H](CC(N)=O)NC(=O)[C@@H]1CCCN1C(=O)[C@H](CO)NC(=O)[C@H](CO)NC(=O)[C@H](Cc1c[nH]cn1)NC(=O)[C@H](CCCNC(=N)N)NC(=O)[C@H](CC(C)C)NC(=O)[C@H](Cc1ccccc1)NC(=O)[C@H](CCC(=O)O)NC(=O)[C@H](C)NC(=O)[C@H](CC(C)C)NC(=O)[C@H](CCCNC(=N)N)NC(=O)[C@H](CCC(N)=O)NC(=O)[C@@H](NC(=O)[C@H](C)NC(=O)[C@@H]1CSSC[C@H](NC(=O)[C@@H](N)CCCCNC(=O)CC[C@H](NC(=O)CC[C@H](NC(=O)CCCCCCCCCCCCCCCCCCC(=O)O)C(=O)O)C(=O)O)C(=O)N[C@@H](CC(N)=O)C(=O)N[C@@H]([C@@H](C)O)C(=O)N[C@@H](C)C(=O)N[C@@H]([C@@H](C)O)C(=O)N1)[C@@H](C)O)C(=O)N1CCC[C@H]1C(=O)N[C@@H](CO)C(=O)N[C@@H](CO)C(=O)N[C@H](C(=O)N[C@@H](CC(N)=O)C(=O)N[C@H](C(=O)NCC(=O)N[C@@H](Cc1c[nH]cn1)C(=O)N[C@@H](CCC(=O)O)C(=O)N[C@H](C(=O)N[C@@H](Cc1ccc(O)cc1)C(N)=O)[C@@H](C)O)C(C)C)[C@@H](C)O)
0.633	35.6	22.5	K([γGlu-γGlu-C20 diacid])CNTATCATQRLAEFLRHSSPNFGAIPSSTNVGHNTY-NH2 (disulfide 2-7; N-terminus assumed; SMILES CC[C@H](C)[C@H](NC(=O)[C@H](C)NC(=O)CNC(=O)[C@H](Cc1ccccc1)NC(=O)[C@H](CC(N)=O)NC(=O)[C@@H]1CCCN1C(=O)[C@H](CO)NC(=O)[C@H](CO)NC(=O)[C@H](Cc1c[nH]cn1)NC(=O)[C@H](CCCNC(=N)N)NC(=O)[C@H](CC(C)C)NC(=O)[C@H](Cc1ccccc1)NC(=O)[C@H](CCC(=O)O)NC(=O)[C@H](C)NC(=O)[C@H](CC(C)C)NC(=O)[C@H](CCCNC(=N)N)NC(=O)[C@H](CCC(N)=O)NC(=O)[C@@H](NC(=O)[C@H](C)NC(=O)[C@@H]1CSSC[C@H](NC(=O)[C@@H](N)CCCCNC(=O)CC[C@H](NC(=O)CC[C@H](NC(=O)CCCCCCCCCCCCCCCCCCC(=O)O)C(=O)O)C(=O)O)C(=O)N[C@@H](CC(N)=O)C(=O)N[C@@H]([C@@H](C)O)C(=O)N[C@@H](C)C(=O)N[C@@H]([C@@H](C)O)C(=O)N1)[C@@H](C)O)C(=O)N1CCC[C@H]1C(=O)N[C@@H](CO)C(=O)N[C@@H](CO)C(=O)N[C@H](C(=O)N[C@@H](CC(N)=O)C(=O)N[C@H](C(=O)NCC(=O)N[C@@H](Cc1c[nH]cn1)C(=O)N[C@@H](CC(N)=O)C(=O)N[C@H](C(=O)N[C@@H](Cc1ccc(O)cc1)C(N)=O)[C@@H](C)O)C(C)C)[C@@H](C)O, also called compound 87)
0.377	27.3	10.3	K([γGlu-γGlu-C20 diacid])CNTATCATQRLAEFLRHSSPNFGAIPSSTNVGPHTY-NH2 (disulfide 2-7 (inferred))
